These are literature values, as cited in article PMC8780439.

Usually Kd stands for the concentration at which binding is half-saturated.

Series [1] has as its target Synaptotagmin II (Homo sapiens) (UniProt Q8N9I0).
Series [2] deals with Synaptotagmin II (Mus musculus) (UniProt P46097).
For series [3], the target named is Synaptotagmin I (Homo sapiens) (UniProt P21579).
UniProt P21579, sequence (P21579 whole entry): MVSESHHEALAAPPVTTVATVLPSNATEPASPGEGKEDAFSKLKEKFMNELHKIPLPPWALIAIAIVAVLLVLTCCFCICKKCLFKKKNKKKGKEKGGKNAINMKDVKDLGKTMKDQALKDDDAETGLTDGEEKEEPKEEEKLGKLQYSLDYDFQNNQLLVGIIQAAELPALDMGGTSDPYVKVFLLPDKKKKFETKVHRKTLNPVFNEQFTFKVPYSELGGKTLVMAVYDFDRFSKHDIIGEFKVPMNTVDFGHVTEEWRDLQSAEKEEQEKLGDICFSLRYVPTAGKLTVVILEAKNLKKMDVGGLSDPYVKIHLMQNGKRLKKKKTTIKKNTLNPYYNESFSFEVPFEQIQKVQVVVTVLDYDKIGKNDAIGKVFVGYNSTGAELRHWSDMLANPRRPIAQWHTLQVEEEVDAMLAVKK

UniProt P46097, sequence (P46097 whole entry): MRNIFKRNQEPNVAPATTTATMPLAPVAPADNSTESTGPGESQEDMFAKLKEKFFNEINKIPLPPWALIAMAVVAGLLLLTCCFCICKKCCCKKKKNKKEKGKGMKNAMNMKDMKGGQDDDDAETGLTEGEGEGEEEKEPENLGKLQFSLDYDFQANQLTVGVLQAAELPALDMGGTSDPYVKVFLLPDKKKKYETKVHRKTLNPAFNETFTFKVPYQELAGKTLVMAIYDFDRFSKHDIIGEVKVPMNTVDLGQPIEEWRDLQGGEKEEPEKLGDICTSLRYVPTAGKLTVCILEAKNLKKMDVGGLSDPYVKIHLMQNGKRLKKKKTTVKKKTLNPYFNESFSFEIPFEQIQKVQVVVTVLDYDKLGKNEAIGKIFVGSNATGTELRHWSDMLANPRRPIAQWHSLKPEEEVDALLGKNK
UniProt Q8N9I0, sequence (Q8N9I0 whole entry): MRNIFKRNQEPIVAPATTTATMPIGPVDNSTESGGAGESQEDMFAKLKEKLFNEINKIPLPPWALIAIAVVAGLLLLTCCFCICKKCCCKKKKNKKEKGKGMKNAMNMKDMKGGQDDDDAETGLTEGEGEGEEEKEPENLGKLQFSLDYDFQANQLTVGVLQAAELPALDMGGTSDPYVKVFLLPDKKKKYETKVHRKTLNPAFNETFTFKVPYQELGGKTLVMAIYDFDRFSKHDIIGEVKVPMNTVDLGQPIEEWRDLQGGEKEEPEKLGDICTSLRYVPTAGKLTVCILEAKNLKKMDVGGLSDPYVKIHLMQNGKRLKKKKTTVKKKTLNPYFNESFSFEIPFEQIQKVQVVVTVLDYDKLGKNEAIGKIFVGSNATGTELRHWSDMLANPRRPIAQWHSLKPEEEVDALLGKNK

In the case of “BoNT/B heavy chain (from UniProt B1INP5)”, the Kd in series [1] is > 20 µM; in series [2], 0.13 µM.

For BoNT/B (from UniProt P10844), the dissociation constant (Kd) in series [3] was > 20 µM.
